Measured values: publication PMC8456102

Target: native Tyr-p3 (group 3 allergen of Tyrophagus putrescentiae) (Tyrophagus putrescentiae) (UniProt C6ZDB5)
Chain of UniProt C6ZDB5 (C6ZDB5 34-285): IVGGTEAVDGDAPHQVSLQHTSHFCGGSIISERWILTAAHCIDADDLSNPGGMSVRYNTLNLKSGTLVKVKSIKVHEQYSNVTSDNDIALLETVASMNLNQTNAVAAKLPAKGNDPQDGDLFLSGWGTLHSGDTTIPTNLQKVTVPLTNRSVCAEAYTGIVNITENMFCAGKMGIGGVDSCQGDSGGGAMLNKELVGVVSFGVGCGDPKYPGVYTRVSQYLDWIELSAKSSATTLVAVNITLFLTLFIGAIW

“soybean trypsin inhibitor (from UniProt P01070 25-205) (natural protein)” gave an inhibition of the protease activity of nTyr-p3 on the substrate TAME (OD 405 nm; sample pretreated with 10 mM inhibitor for 60 min at 25°C) of 88%.
